Source: publication PMC3670040, “Structure of Lipid Kinase p110β/p85β Elucidates an Unusual SH2-Domain-Mediated Inhibitory Mechanism” (Molecular Cell, 2011)
Read-outs that look alike come from different tables or passages of the source.

Legend:
p110β [1] = experiment: Transcreener ADP formation (fluorescence polarization), diC8-PIP2/POPS liposomes, mouse p110β complexes; type: biochemical; conditions: for EC50: Figure 3A, Y677A vs wild-type, diC8-PIP2/POPS, 100 μM ATP, 1 h, room temperature
Description: (§1) Figure 1 Inhibition of p110β by p85-Type Regulatory Subunits and Activation of the Complexes by RTK Phosphopeptide (A) Domain organization of p110β and the regulatory subunits p85α, p85β, and p55γ. The color scheme for the domains is used for all figures, unless otherwise stated. […] The inhibition is released upon addition of the 10 μM PDGFR pY2. […] The y axis is expressed as a change in fluorescence polarization (ΔmP), which is obtained by subtracting the observed polarization for the construct at a given enzyme concentration from the maximum fluorescence polarization for that construct. The plateau in these assays arises due to the competitive nature of the ADP detection system, based on displacement of ADP-Alexa 633 tracer from the ADP^2-antibody by ADP generated during the PI3K assay (see Supplemental Experimental Procedures). All measurements were done in triplicates, and the error bars indicate the standard error of the mean (SEM). (C) Kinase activity of p110β/p85β complexes with monomeric substrate (75 μM diC8-PIP2) in the presence and absence of pY2; y axis as in (B). (D) Basal- and pY2-stimulated activities of 35 nM PI3K complexes in the absence of lipids (ATP hydrolysis). Activities are given as percent of ATP converted to ADP using the Transcreener assay. Bars indicate SEM. TEXT PRINTED IN THE PICTURE: (B) p110β/nic: EC50 (nM): 15 | (B) p110β/nic+pY2: EC50 (nM): 0.14 | (B) p110β/ic: EC50 (nM): 1 | (B) p110β/ic+pY2: EC50 (nM): 0.21 | (B) p110β/ni: EC50 (nM): 0.84 | (B) p110β/ni+pY2: EC50 (nM): 0.24 | (B) p110β/i: EC50 (nM): 0.12 | (B) p110β/i+pY2: EC50 (nM): 0.14 | (B) ΔABD-p110β: EC50 (nM): 0.06 | (B) ΔABD-p110β+pY2: EC50 (nM): 0.05 | (C) p110β/nic: EC50 (nM): 24 | (C) p110β/nic+pY2: EC50 (nM): 3 | (C) p110β/ic: EC50 (nM): 5 | (C) p110β/ic+pY2: EC50 (nM): 2 | (C) p110β/ni: EC50 (nM): 4 | (C) p110β/ni+pY2: EC50 (nM): 2 […]
(§2) Figure 3 Mutation Y677A in p85β-cSH2 Releases Inhibitory Effect on p110β (A) Kinase activity (ADP formation) of p110β in a complex with p85β-icSH2-Y677A (Y677A-ic) compared to the wild-type complex (ic) in the absence and presence of 10 μM PDGFR pY2 (ADP formation on the y axis expressed as in Figure 1B). (B) Comparison of p110β activities of 1 nM complexes with wild-type or Y677 mutant nicSH2 or icSH2 (activity shown as in Figure 1D). TEXT PRINTED IN THE PICTURE: (A) p110β/ic: EC50 (nM): 1 | (A) p110β/ic+pY2: EC50 (nM): 0.15 | (A) p110β/ic-Y677A: EC50 (nM): 0.11 | (A) p110β/ic-Y677A+pY2: EC50 (nM): 0.08 […]
(§3) The lipid kinase activity was determined using the Transcreener ADP2 FP Assay (BellBrook Labs, Madison, WI) according to manufacturer‟s specifications. This non-radioactive assay measures activity by quantitating the amount of ADP formed. The ADP formed by PI3K competes with fluorescent ADP tracer for binding to an anti-ADP antibody, thereby decreasing fluorescence polarization. Because of the competitive nature of this assay, the change in fluorescence polarization signal is not a linear function of enzyme activity, and a convenient measure of enzyme activity is the EC50, or the concentration of enzyme necessary to give half-maximal inhibition of labeled ADP binding to the antibody, for a given concentration of substrate and a fixed time of reaction at initial rate. While activity of two different enzyme constructs can be compared at a fixed concentration of protein and a fixed concentration of substrate, the assay is most reliable when about 2%-10% of the ATP is […]
(§4) Consequently, the EC50 provides a convenient way to compare the activities of various constructs. Briefly, reactions were performed in 10 μl volume in 384-well black plates (Corning 3676) and they contained final 100 μM ATP, 75 μM lipids and a series of protein concentration varying from 0.001 nM to 2.5 μM. Serial dilutions of protein heterodimers were prepared in buffer F (50 mM Hepes pH 7.5, 100 mM NaCl, 0.03% CHAPS, 4 mM DTT) in 5 μl […]
volume. […]

p110β [2] = target: T1, p110β (Mus musculus, UniProt Q8BTI9); experiment: as above; type: biochemical; conditions: 10 μM PDGFR pY2; Figure 3A
T1 construct: Mouse His6-p110β(1-1064)/p85β-icSH2(423-722) complex; made in house; host or cells: Sf9 insect cells (baculovirus co-infection)
T1 sequence (Q8BTI9 whole entry, one chain of several): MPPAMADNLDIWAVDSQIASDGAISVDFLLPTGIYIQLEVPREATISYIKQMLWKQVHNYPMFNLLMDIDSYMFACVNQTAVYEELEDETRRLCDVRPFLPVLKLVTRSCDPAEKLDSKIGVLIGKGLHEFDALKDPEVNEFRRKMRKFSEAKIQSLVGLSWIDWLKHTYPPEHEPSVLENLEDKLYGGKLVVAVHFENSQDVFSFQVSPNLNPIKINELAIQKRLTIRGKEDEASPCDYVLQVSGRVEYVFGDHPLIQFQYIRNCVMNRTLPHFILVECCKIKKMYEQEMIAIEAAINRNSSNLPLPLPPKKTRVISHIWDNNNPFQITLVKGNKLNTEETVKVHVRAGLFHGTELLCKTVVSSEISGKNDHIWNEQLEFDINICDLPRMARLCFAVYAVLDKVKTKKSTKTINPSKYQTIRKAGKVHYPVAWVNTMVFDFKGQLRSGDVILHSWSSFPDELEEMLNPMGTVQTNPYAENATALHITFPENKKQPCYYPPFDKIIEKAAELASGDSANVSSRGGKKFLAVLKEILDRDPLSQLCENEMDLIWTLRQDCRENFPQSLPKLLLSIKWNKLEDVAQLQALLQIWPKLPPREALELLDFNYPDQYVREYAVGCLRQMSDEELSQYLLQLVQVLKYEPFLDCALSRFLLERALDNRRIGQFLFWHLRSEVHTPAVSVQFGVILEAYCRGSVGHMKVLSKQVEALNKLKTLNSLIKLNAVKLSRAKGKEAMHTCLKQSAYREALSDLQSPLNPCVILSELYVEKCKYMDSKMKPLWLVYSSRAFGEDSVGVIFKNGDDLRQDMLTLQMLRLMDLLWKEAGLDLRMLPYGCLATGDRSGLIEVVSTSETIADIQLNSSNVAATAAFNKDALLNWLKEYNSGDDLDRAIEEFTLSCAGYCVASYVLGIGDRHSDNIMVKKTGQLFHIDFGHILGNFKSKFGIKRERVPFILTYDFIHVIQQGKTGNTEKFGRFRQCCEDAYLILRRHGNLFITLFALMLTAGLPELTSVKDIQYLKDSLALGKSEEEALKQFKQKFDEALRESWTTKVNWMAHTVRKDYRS
Description: as §1, §2, §3, §4
volume. […]

EC50 (p110β [1]; absence of pY2, read-out: EC50 (enzyme concentration), kinase activity, basal): 0.11 nM
EC50 (p110β [1]; with 10 μM PDGFR pY2, read-out: EC50 (enzyme concentration), kinase activity, + pY2): 0.08 nM
activation by pY2 (p110β [2]): not activated by pY2
B1: p110β/ic-Y677A: p110β in a complex with p85β-icSH2-Y677A (protein)
chain: QQDQVVKEDSIEAVGAQLKVYHQQYQDKSREYDQLYEEYTRTSQELQMKRTAIEAFNETIKIFEEQGQTQEKCSKEYLERFRREGNEKEMQRILLNSERLKSRIAEIHESRTKLEQDLRAQASDNREIDKRMNSLKPDLMQLRKIRDQYLVWLTQKGARQRKINEWLGIKNETEDQYSLMEDEDALPHHEERTWYVGKINRTQAEEMLSGKRDGTFLIRESSQRGCYACSVVVDGDTKHCVIYRTATGFGFAEPANLYGSLKELVLHYQHASLVQHNDALTVTLAHPVRAPGPGPPSAAR
basal activity versus wild-type complex (p110β [1]; absence of pY2, ADP formation, Figures 3A, 3B): more active than the wild-type p110β/p85β-icSH2
